Assay results reported in publication PMC6309500 (Molecular cell, 2018).

B1: V5-tagged mouse SIRT1 (enzyme, UniProt Q923E4 1-737, looked up)
chain: MADEVALALQAAGSPSAAAAMEAASQPADEPLRKRPRRDGPGLGRSPGEPSAAVAPAAAGCEAASAAAPAALWREAAGAAASAEREAPATAVAGDGDNGSGLRREPRAADDFDDDEGEEEDEAAAAAAAAAIGYRDNLLLTDGLLTNGFHSCESDDDDRTSHASSSDWTPRPRIGPYTFVQQHLMIGTDPRTILKDLLPETIPPPELDDMTLWQIVINILSEPPKRKKRKDINTIEDAVKLLQECKKIIVLTGAGVSVSCGIPDFRSRDGIYARLAVDFPDLPDPQAMFDIEYFRKDPRPFFKFAKEIYPGQFQPSLCHKFIALSDKEGKLLRNYTQNIDTLEQVAGIQRILQCHGSFATASCLICKYKVDCEAVRGDIFNQVVPRCPRCPADEPLAIMKPEIVFFGENLPEQFHRAMKYDKDEVDLLIVIGSSLKVRPVALIPSSIPHEVPQILINREPLPHLHFDVELLGDCDVIINELCHRLGGEYAKLCCNPVKLSEITEKPPRPQKELVHLSELPPTPLHISEDSSSPERTVPQDSSVIATLVDQATNNNVNDLEVSESSCVEEKPQEVQTSRNVENINVENPDFKAVGSSTADKNERTSVAETVRKCWPNRLAKEQISKRLEGNQYLFVPPNRYIFHGAEVYSDSEDDVLSSSSCGSNSDSGTCQSPSLEEPLEDESEIEEFYNGLEDDTERPECAGGSGFGADGGDQEVVNEAIATRQELTDVNYPSDKS
B2: V5-tagged human SIRT1 (enzyme, UniProt Q96EB6 1-747, looked up)
chain: MADEAALALQPGGSPSAAGADREAASSPAGEPLRKRPRRDGPGLERSPGEPGGAAPEREVPAAARGCPGAAAAALWREAEAEAAAAGGEQEAQATAAAGEGDNGPGLQGPSREPPLADNLYDEDDDDEGEEEEEAAAAAIGYRDNLLFGDEIITNGFHSCESDEEDRASHASSSDWTPRPRIGPYTFVQQHLMIGTDPRTILKDLLPETIPPPELDDMTLWQIVINILSEPPKRKKRKDINTIEDAVKLLQECKKIIVLTGAGVSVSCGIPDFRSRDGIYARLAVDFPDLPDPQAMFDIEYFRKDPRPFFKFAKEIYPGQFQPSLCHKFIALSDKEGKLLRNYTQNIDTLEQVAGIQRIIQCHGSFATASCLICKYKVDCEAVRGDIFNQVVPRCPRCPADEPLAIMKPEIVFFGENLPEQFHRAMKYDKDEVDLLIVIGSSLKVRPVALIPSSIPHEVPQILINREPLPHLHFDVELLGDCDVIINELCHRLGGEYAKLCCNPVKLSEITEKPPRTQKELAYLSELPPTPLHVSEDSSSPERTSPPDSSVIVTLLDQAAKSNDDLDVSESKGCMEEKPQEVQTSRNVESIAEQMENPDLKNVGSSTGEKNERTSVAGTVRKCWPNRVAKEQISRRLDGNQYLFLPPNRYIFHGAEVYSDSEDDVLSSSSCGSNSDSGTCQSPSLEEPMEDESEIEEFYNGLEDEPDVPERAGGAGFGTDGDDQEAINEAISVKQEVTDMNYPSNKS

Target: FLAG-tagged PACS-2 (UniProt Q86VP3 1-889)
Assay: co-IP

Chain of FLAG-tagged PACS-2 (Q86VP3 whole entry): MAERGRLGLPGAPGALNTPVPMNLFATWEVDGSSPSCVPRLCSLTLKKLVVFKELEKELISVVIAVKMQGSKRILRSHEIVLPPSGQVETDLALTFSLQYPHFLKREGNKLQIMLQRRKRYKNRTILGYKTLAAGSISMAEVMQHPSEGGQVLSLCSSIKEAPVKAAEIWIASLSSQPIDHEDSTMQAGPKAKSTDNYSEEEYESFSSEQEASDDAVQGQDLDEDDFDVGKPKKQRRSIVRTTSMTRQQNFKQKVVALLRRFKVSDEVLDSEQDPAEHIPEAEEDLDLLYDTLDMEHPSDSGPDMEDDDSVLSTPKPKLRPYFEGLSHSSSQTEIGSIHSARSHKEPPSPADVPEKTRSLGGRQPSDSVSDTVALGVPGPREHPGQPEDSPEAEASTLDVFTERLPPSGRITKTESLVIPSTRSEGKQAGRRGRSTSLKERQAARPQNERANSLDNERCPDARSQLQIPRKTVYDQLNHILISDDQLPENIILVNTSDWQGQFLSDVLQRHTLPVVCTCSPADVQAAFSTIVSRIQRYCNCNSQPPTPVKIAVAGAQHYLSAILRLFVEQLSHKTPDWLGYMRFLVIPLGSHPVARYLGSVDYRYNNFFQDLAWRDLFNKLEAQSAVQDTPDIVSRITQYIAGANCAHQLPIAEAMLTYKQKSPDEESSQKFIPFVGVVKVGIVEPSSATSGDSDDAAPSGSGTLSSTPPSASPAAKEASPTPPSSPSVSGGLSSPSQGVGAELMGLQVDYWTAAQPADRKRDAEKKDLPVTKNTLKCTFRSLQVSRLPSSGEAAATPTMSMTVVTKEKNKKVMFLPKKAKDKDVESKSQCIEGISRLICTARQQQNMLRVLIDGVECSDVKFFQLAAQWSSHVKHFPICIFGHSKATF

Row | Binder | fold enhancement of the co-IP in the presence of DBC1 [fold]
1 | B1 | > 8
2 | B2 | > 8
